Usually Kd stands for the free concentration of one partner at which half of the binding sites on the other are occupied at equilibrium, for simple one-to-one binding. A lower Kd goes with tighter binding.

Experiment [1] has as its target PD-1 (programmed cell death protein 1), as parameterised in the receptor occupancy model (UniProt Q15116 25-167, limits assumed). As to the kind of experiment: assay not stated; parameter of the mPBPK tumor receptor occupancy model.
Experiment [2] deals with T1, LAG3 (lymphocyte activation gene-3), as parameterised in the receptor occupancy model (UniProt P18627 23-450, limits assumed).
T1 construct: also called CD223
T1 sequence (looked up): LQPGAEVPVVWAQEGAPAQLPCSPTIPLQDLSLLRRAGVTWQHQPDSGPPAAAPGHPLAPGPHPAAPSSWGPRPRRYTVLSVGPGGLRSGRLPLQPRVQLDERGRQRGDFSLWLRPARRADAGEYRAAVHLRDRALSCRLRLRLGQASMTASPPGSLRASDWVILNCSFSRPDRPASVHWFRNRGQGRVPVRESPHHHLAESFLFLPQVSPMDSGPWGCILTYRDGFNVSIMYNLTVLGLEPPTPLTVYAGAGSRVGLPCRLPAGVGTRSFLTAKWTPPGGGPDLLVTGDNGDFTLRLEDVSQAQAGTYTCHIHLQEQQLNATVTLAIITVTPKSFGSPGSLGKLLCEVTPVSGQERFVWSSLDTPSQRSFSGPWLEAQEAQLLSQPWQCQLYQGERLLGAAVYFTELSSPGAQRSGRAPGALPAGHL
As to the kind of experiment: assay not stated; parameter of the mPBPK tumor receptor occupancy model; input parameter of the PK/receptor occupancy model; assay not stated.

Sequence of PD-1 (programmed cell death protein 1), as parameterised in the receptor occupancy model (Q15116 25-167 limits assumed): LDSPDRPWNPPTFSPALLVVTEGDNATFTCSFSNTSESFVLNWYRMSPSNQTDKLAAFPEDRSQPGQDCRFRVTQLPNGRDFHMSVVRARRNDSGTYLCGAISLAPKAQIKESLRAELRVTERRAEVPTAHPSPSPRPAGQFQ

B1: RO7247669 (PD1-LAG3), anti-PD-1/LAG3 bispecific antibody (bispecific antibody, human IgG1, kappa, L234A L235A)
heavy 1: not shown
light 1: EVQLLESGGGLVQPGGSLRLSCAASGFSFSSYTMSWVRQAPGKGLEWVATISGGGRDIYYPDSVKGRFTISRDNSKNTLYLQMNSLRAEDTAVYYCVLLTGRVYFALDSWGQGTLVTVSSASVAAPSVFIFPPSDEQLKSGTASVVCLLNNFYPREAKVQWKVDNALQSGNSQESVTEQDSKDSTYSLSSTLTLSKADYEKHKVYACEVTHQGLSSPVTKSFNRGEC
heavy 2: EVQLLESGGGLVQPGGSLRLSCAASGFIFDDYTMNWVRQAPGKGLEWVAVISWDGGGTYYTDSVKGRFTISRDDFKNTLYLQMNSLRAEDTAVYYCAKGLTDTTLYGSDYWGQGTLVTVSSASTKGPSVFPLAPSSKSTSGGTAALGCLVEDYFPEPVTVSWNSGALTSGVHTFPAVLQSSGLYSLSSVVTVPSSSLGTQTYICNVNHKPSNTKVDEKVEPKSCDKTHTCPPCPAPEAAGGPSVFLFPPKPKDTLMISRTPEVTCVVVDVSHEDPEVKFNWYVDGVEVHNAKTKPREEQYNSTYRVVSVLTVLHQDWLNGKEYKCKVSNKALGAPIEKTISKAKGQPREPQVCTLPPSRDELTKNQVSLSCAVKGFYPSDIAVEWESNGQPENNYKTTPPVLDSDGSFFLVSKLTVDKSRWQQGNVFSCSVMHEALHNHYTQKSLSLSPGK
light 2: not shown
notes: also called PD-1 BsAb; bsAb RO7247669
Turning to B1, the Kd turned out to be 0.25 nM in experiment [1] and 0.78 nM in experiment [2].
